The values below come from patent US20230265192A1 (GIGAGEN, published 2023).

Experiment [1] has as its target T1, rcmCTLA-4-Fc from Sino Biological (90213-C02H) (cynomolgus monkey).
T1 construct: also called Sino Biological rcmCTLA-4 Fc
The experiment is described as follows: ELISA, against R&D rhCTLA-4 Fc on the same plate. On the procedure:
(§1) Recombinant human CTLA-4-Fc (rhCTLA-4) from R&D Systems (7268-CT-100, FIGS. 36A-36C) was coated at 1 ug/mL, on the other half of each of the plates. […] RhCTLA-4-Fc (ACROBiosystems, CT4-H5229, FIGS. 36D-E) was coated at 1 ug/mL, on the other half of each of these plates. After coating, the plates were incubated overnight at 4° C.
(§2) The following day, the plates were blocked with 5% milk in PBST for 1 hour on a plate shaker at room temperature. […] Excess, unbound mAbs were removed by washing with PBST. Bound mAbs were then detected with an HRP-conjugated anti-kappa light chain antibody (0.5 ug/ml, Southern Biotech 2060-50). After incubation on a plate shaker for 1 hour at room temperature and washing, the plates were developed with TMB substrate. After sufficient signal was achieved, 1 N hydrochloric acid was added to stop development. Absorbance at 450 nm was read using a Spectramax i3x plate reader (Molecular Devices). EC50 values were calculated by plotting absorbance vs. the log of concentration using Prism (GraphPad).
For orientation: In an ELISA, binding on a coated surface is turned into a signal by an enzyme label.

Experiment [2] concerns the target T2, rcmCTLA-4-Fc from ACROBiosystems (CT4-C5256) (cynomolgus monkey).
T2 construct: also called ACROBiosystems rcmCTLA-4 Fc; ACROBiosystems cCTLA-4 Fc
Put plainly: ELISA, against R&D rhCTLA-4 Fc on the same plate. On the procedure:
as §1, §2

Experiment [3] has as its target T3, His-tagged cynomolgus CTLA-4 (CT4-C5227; Acro Biosystems) (cynomolgus, UniProt G7PL88 36-161).
T3 construct: also called soluble cynomolgus CTLA-4; cyno CTLA-4
Put plainly: BLI (Octet). Put shortly: (§3)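 Antibodies captured on anti-human IgG Fc (AHC) biosensors (Octet Red96); antigen analyte from 300 nM in 6 serial 1:3 dilutions. Kinetics from global fitting to a 1:1 binding model.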

The next experiment has as its target mouse CTLA-4 (mouse, UniProt P09793 36-161, limits assumed). Put plainly: BLI (Octet). Put shortly: as §3
(BLI is a label-free optical method that tracks binding on a fibre tip over time.)

The target in experiment [4] is T4, His-tagged human CTLA-4 (CT4-H5229; Acro Biosystems) (human, UniProt P16410 36-161).
T4 construct: bought soluble protein; also called soluble human CTLA-4; recombinant human CTLA-4; not shown: His tag
Put plainly: SPR (Carterra). In outline: (§4)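 mAb supernatants captured, at two densities, on an anti-human IgG Fc lawn. His-tagged human CTLA-4 injected at 1.95, 7.8, 31.25, 125 and 500 nM in HBS-EPC pH 7.4 with 1.0 mg/mL BSA, as a non-regenerative series with 5-min association and 15-min dissociation. Double-referenced data fitted for ka, kd and KD.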

For experiment [5], the target named is T4, His-tagged human CTLA-4 (CT4-H5229; …). Put plainly: SPR (Carterra). Put shortly:
as §4
The source holds these as a separate data set.

Experiment [6] addresses T5, human CTLA-4 expressed on the cell surface (human, UniProt P16410 36-223). Put plainly: cell-based or functional assay.
Experiment [7] addresses T5, human CTLA-4 expressed on the cell …. Put plainly: cell-based or functional assay. This is another data set of the same source.
The target in experiment [8] is T4, His-tagged human CTLA-4 (CT4-H5229; …). Put plainly: SPR (Carterra), soluble human CTLA-4.
In experiment [9] the target is T3, His-tagged cynomolgus CTLA-4 …. Put plainly: BLI (Octet), single antigen concentration. On the procedure:
Table 23. In vitro characterization of scFvs reformatted as full-length antibodies. kon, koff, and KD of the indicated CTLA-4 mAbs for soluble human CTLA-4 was determined by SPR (Carterra). Geometric MFI of the indicated CTLA-4 mAbs bound to CTLA-4⁺ or CD27⁺ CHO cells as detected by a secondary human IgG antibody and flow cytometry. Affinity (KD) of the indicated CTLA-4 mAbs for soluble cynomolgus CTLA-4 was determined by a single antigen concentration BLI measurement (Octet). […] Due to constraints on sample size in each Promega bioassay kit, this set of aCTLA-4 mAbs was analyzed using multiple plates (plate letters correspond to Plate A-D in FIG. 20D).
Antibodies were loaded at 5 μg/mL onto Protein A biosensors that were dipped into 80 nM antigen, and kinetic constants were calculated using a monovalent model.

The target in experiment [10] is T5, human CTLA-4 expressed on the cell …. The experiment is described as follows: flow cytometry, 10 µg/mL mAb, geometric MFI. (A flow cytometer gives signals particle by particle.)
Experiment [11] deals with T6, CD27 on CHO cells (UniProt P26842 20-260, limits assumed).
T6 construct: whole, on cells; also called CD27+ CHO cells; irrelevant antigen (CD27)
The experiment is described as follows: flow cytometry, 10 µg/mL mAb, geometric MFI.

Experiment [12] has as its target T6, CD27 on CHO cells. The experiment is described as follows: flow cytometry, mixed CTLA-4+ and CD27+ CHO cells. Put shortly:
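CHO cells stably expressing human CTLA-4 mixed with CD27-expressing CHO cells, then incubated with 10 μg/mL mAb for 30 min at 4 °C. Bound mAb detected with PE anti-human IgG Fc, CD27 cells gated by FITC anti-CD27; cells fixed in 4% paraformaldehyde before flow cytometry.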

T4 sequence (P16410 36-161 limits assumed): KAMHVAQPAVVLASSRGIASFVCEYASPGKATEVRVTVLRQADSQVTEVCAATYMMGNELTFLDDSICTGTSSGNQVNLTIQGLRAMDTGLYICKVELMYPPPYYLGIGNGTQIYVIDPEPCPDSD
T5 sequence (P16410 36-223 limits assumed): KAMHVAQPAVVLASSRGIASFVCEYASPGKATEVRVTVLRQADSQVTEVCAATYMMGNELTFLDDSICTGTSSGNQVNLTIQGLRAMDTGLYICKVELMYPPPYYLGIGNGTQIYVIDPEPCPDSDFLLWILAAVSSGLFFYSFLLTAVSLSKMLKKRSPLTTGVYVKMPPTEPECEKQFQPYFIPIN
T3 sequence (G7PL88 entry or part of it limits assumed, form in doubt): as the sequence (P16410 36-161 limits assumed) above, with S14N, I18T, L106M counted along it
T6 sequence (P26842 20-260 limits assumed): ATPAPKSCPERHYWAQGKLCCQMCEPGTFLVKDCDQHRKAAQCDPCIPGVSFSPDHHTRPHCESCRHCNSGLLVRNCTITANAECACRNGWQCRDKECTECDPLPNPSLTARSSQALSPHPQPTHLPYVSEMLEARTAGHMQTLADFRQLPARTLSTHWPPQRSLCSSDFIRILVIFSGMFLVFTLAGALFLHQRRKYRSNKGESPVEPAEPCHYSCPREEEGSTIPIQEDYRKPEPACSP
Sequence of mouse CTLA-4 (P09793 36-161 limits assumed): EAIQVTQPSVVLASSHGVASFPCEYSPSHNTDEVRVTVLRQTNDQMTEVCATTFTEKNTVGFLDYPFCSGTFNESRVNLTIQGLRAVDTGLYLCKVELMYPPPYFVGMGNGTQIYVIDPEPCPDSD

B1: Ipilimumab (antibody, V domains shown)
VH: QVQLVESGGGVVQPGRSLRLSCAASGFTFSSYTMHWVRQAPGKGLEWVTFISYDGNNKYYADSVKGRFTISRDNSKNTLYLQMNSLRAEDTAIYYCARTGWLGPFDYWGQGTLVTVSSA
VL: not shown
notes: also called commercial ipilimumab; Yervoy
Take B1: the “Fold Change (EC50 of cyno divided by EC50 of human)” value is 1.6 in [1] and 1.3 in experiment [2].

B2: antibody A1 (L1H1) (antibody, V domains shown)
VH: QVQLVESGGGVVQPGRSLRLSCAASGFTFSSFGMHWVRQAPGKGLEWVAVIWYDGRNKYYVDSVKGRFTISRDNSNNTLYLQMNSLRAEDTAVYYCARGEFFGEFFDYWGQGTLVTVSS
VL: EIVLTQSPGTLSLSPGEGATLSCRASQSFSSNYLAWYQQKPGQAPRLLIYGASSRATGIPDRFSGSGSGTDFTLTISRLEPEDFAVYYCQQYGTSPFTFGPGTKVDIK
notes: also called aCTLA-4.9; CTLA4.A1
As a reminder, the Kd is the free concentration of one partner at which half of the binding sites on the other are occupied at equilibrium, for simple one-to-one binding. Low readings indicate higher affinity, high ones lower affinity. As usually defined, the koff is a measure of how fast the partners let go of each other. For orientation: kon means a measure of how fast the partners come together. On to B2, for which the Kd in [3] came to 0.96 nM; in the experiment with mouse CTLA-4 it was 51 nM; in [4], 0.77 nM; in experiment [5], 0.77 nM; in experiment [8], 0.77 nM; in experiment [9] it was 1 nM. The off-rate constant (koff) in experiment [5] and in experiment [8] was 0.00016 s⁻¹ each time. For the same molecule, the kon in experiment [5] and in [8] was 210000 M⁻¹ s⁻¹ in each case. In addition, in [6], the “Promega assay % inhibition” value was 43.2%. Besides, the “Promega assay antagonist (EC50, ug/mL)” value in experiment [6] is 0.13 µg/mL. Moreover, the “Cell-based blocking activity EC50” value in experiment [7] stood at 0.13 µg/mL. Also, in experiment [7], the “Cell-based blocking activity max signal (RLU)” value turned out to be 237 RLU. Also, the “MFI of CTLA-4+ CHO cells” value in [10] was 1330. The “MFI of CD27+ CHO cells” value in the experiment with CD27 on CHO cells [11] was found to be 18.5. Also, the binding result with CD27 on CHO cells [12] is on record as “no binding (tested: 10 µg/mL)”.
